The results in this text go back to patent US6355481.

The assay has as its target HAP1-A (Huntingtin Associated Protein 1-A) (UniProt P54256). Nature of the assay: cell-based or functional assay.

Sequence of HAP1-A (Huntingtin Associated Protein 1-A) (P54256 other isoform, or with tags, fused parts or gaps limits assumed): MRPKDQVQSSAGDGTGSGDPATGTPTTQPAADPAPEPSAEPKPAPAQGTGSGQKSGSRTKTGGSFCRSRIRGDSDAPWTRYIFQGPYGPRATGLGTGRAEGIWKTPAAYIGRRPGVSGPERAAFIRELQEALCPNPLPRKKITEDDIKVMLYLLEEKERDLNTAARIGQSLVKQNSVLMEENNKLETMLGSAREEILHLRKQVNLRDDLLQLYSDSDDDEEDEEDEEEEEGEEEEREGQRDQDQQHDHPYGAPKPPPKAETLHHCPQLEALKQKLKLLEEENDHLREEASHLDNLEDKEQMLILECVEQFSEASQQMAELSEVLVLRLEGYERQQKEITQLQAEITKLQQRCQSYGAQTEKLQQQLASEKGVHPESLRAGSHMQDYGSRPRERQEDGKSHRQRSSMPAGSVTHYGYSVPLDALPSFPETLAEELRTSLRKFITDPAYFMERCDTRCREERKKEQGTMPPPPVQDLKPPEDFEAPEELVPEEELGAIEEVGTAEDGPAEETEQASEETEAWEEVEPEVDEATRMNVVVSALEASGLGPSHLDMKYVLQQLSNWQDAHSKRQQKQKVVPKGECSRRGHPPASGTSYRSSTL

The substance “N-terminal region of human huntingtin protein (amino acids 1-253) with 73 glutamines (HD-73Q) (from UniProt P42858 1-253)” displayed a percentage of HAP1-A and huntingtin double-transfected PC12 cells with elongated neurites of 15.2%.

The substance “N-terminal region of human huntingtin protein (amino acids 1-253) with 120 glutamines (HD-120Q) (from UniProt P42858 1-253)” returned a percentage of HAP1-A and huntingtin double-transfected PC12 cells with elongated neurites of 7.5%.
